Data as given in patent US20050064507A1, “Determining kinase specificity” (priority 2003, published 2005).

Tests used:
Format in all cases: biochemical
Settings in all cases: normalized to best substrate
PKC-zeta = molecular target: T1, PKC-zeta (Homo sapiens, UniProt Q05513); assay: In vitro kinase assay: peptide phosphorylation by PKC-zeta
T1 construct: purchased Calbiochem
T1 sequence (Q05513 1-592): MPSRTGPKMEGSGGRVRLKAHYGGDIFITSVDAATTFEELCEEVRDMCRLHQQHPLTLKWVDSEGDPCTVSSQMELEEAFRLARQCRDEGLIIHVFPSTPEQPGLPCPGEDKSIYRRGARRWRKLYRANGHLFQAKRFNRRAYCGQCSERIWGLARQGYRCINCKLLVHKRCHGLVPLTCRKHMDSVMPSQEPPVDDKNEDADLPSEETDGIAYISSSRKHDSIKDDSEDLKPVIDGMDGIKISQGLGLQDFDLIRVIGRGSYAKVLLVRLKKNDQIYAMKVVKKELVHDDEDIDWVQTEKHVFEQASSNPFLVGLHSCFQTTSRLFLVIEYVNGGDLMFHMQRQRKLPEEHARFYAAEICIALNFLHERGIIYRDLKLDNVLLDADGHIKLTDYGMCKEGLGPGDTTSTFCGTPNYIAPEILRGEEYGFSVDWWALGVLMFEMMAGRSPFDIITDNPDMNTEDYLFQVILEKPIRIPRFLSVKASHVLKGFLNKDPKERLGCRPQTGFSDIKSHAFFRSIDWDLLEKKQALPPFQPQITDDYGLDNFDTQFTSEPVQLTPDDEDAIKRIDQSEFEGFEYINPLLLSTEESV
Description: (§1) Catalytically active preparations of the kinases of interest were either purchased or prepared. Purchased and tested active kinase preparations including the following: PKC-alpha, PKC-delta, PKC-epsilon, PKC-zeta, PKC-mu, PKA, PKG from Calbiochem, ROK alpha/ROCK-II, active from Upstate Biotechnology, and AKT1 from Panvera.
(§2) The conditions of the kinase assay and the amount of active kinase used varied with the kinase and with the accuracy needed. For a typical experiment, 5-20 ng of kinase was used per well and each peptide pool was assayed in duplicate wells. Note that the absolute amount of kinase used was not usually a critical parameter, because the desired information related to specificity of the kinase not its absolute activity, and robustness of the assay depends on comparisons of the same amount of kinase on different peptides. The combination of kinase concentration and assay duration was modified to assure that the stoichiometry of peptide phosphorylation never exceeded 5%. The choice of kinase buffer depended on the kinase being analyzed. For studies of PKC, 100 mM HEPES, 0.05% Triton-X100, 1 mM CaCl2, 20 mM MgCl2, 0.2 mg/ml phosphatidyl serine (Avanti Polar Lipids), PMA 100 ng/ml was typically used. The lipid stock was prepared by transferring 3 mg phosphatidyl serine into iced mixture of 450 μl water plus 50 μl of 10% Triton-X100, sonicating 10 times on ice for 1 sec each.
(§3) The kinase reaction mixture was assembled by sequential addition to a tube held on ice of: 5 μl peptide (100 μM for final concentration of 10 μM), 15 μl of kinase (typically 5 ng/well, in appropriate kinase buffer), 30 μl of ATP (1 uCi/well of ^32P-gamma ATP in a stock of 167 μM cold ATP in the kinase buffer; for final concentration for 100 μM ATP). The mixture was rapidly warmed to desired reaction temperature (30° C. for PKC) and incubated for the desired duration (usually 10 minutes). The kinase assay was terminated by transfer to 4° C. water batch, and rapid addition of an equal volume (50 μl) of stop solution [0.1M ATP+0.1M EDTA in water, pH 8].
(§4) The peptides were then captured from the reaction mixture by transfer to a Reacti-Bind Streptavidin High Binding Capacity Coated Plates (HBC) (Pierce Biotechnology) as follows. The HBC plates were pre-rinsed three times with PBS/Tween PBS/Tween20 0.05% (PBS/Tween). Part of all of the reaction mixture was then transferred wells of a HBC plate pre-filled with 90 μl of phosphate-buffered saline (PBS); typically each aliquots of each phosphorylation reaction were transferred to duplicate HBC plates to assure accuracy by additional replication
(§5) For kinase assays done at the standard peptide concentration of 10 μM, the peptide concentration in the reaction mixture becomes 5 μM after addition of the stop solution; consequently 10 μl of the reaction (50 pMoles of peptide) was transferred to the HBC plate. More generally, the amount of reaction mixture transferred was estimated to be about 50 pMoles of peptide. […] The HBC plates were incubated for 0.5 to 1.5 hr at room temperature for complete binding of biotinylated peptides to plate-bound streptavidin. The HBC plates were then washed extensively with PBS/Tween. Five washes were done routinely and additional wash steps were added if the wash solution removed from the plate had measurable radioactivity as detected using a Geiger counter. This step is essential to obtaining a good the signal to noise ratio because the fraction of radioactivity incorporated in the peptides was a tiny fraction of the total in the reaction mixture. The wells were air-dried. A volume of 40-50 μl of microScint-20 (Packard Instruments) was added to each well. The plates were covered with stick-on film sheet. Radioactive emissions were measured in a TopCount NXT Microplate Scintillation and Luminescence Counter (Packard Instruments). Typically samples were counted for 5 minutes (or more) to improve the signal to noise ratio when counts were low. […]

PKA = molecular target: T2, PKA (Homo sapiens, UniProt P17612); assay: In vitro kinase assay: peptide phosphorylation by PKA
T2 construct: purchased Calbiochem
Description: as §1, §2, §3, §4, §5

AKT1 = molecular target: T3, AKT1 (Homo sapiens, UniProt P31749); assay: In vitro kinase assay: peptide phosphorylation by AKT1
T3 construct: purchased Panvera
T3 sequence (P31749 whole entry, species assumed): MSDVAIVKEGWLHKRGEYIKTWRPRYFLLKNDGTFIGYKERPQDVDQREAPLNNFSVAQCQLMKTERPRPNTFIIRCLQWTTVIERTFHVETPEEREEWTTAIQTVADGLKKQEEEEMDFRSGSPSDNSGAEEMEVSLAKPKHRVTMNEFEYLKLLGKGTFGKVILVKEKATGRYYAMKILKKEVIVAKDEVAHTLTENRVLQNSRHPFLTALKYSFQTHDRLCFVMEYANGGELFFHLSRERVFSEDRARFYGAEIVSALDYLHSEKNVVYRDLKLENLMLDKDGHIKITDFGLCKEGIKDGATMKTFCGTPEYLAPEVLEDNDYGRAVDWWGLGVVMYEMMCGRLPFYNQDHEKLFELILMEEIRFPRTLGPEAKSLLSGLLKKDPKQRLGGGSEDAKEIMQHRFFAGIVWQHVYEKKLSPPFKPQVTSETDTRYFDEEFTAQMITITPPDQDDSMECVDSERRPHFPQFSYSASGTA
Description: as §1, §2, §3, §4, §5

PKC-delta = molecular target: T4, PKC-delta (Homo sapiens, UniProt Q05655); assay: In vitro kinase assay: peptide phosphorylation by PKC-delta;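 also: peptide concentration 10 nM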
T4 construct: purchased Calbiochem
T4 sequence (Q05655 whole entry): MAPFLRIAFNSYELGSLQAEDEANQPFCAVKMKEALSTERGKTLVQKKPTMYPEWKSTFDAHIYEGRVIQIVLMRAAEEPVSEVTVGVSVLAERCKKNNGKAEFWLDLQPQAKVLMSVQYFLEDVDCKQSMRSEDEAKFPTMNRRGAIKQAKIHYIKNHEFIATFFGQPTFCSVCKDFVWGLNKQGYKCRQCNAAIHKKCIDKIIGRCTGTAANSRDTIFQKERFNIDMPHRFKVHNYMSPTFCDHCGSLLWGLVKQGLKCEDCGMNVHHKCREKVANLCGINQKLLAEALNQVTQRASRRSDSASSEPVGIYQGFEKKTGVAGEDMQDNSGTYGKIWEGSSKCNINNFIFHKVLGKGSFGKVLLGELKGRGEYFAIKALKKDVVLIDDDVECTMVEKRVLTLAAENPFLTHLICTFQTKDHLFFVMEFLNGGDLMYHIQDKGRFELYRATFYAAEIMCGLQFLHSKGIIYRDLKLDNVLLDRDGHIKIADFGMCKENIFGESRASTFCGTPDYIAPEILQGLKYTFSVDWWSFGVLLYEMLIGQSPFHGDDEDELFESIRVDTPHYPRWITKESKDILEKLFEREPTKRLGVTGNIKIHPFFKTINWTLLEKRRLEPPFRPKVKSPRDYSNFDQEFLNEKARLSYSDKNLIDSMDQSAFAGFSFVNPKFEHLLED
Outline: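 Biotin-Lys-dansyl-Lys-Pro-Pro-Gly-linked proteomic peptides (12–21-residue core) phosphorylated by PKC-delta in HEPES/Triton/CaCl2/MgCl2 buffer with phosphatidyl serine and PMA, 100 μM [γ-32P]ATP, 30° C., ~10 min, stoichiometry ≤5%; streptavidin-plate capture. Signal normalized as % of best peptide substrate.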

Substance	PKC-zeta phosphorylation (PKC-zeta)	PKA phosphorylation (PKA)	AKT1 phosphorylation (AKT1)	PKC delta phosphorylation (PKC-delta)
90 (AQIVKRASLKRGKQ) [compound 90]	5%	3%	3%	32%
83 (RKIPKRPGSVHRTPSRQ) [compound 83]	4%	2%	6%	38%
89 (EYLERRASRRRAV) [compound 89]	14%	4%	1%	20%
104 (EKIKRSSLKKVDSLKK) [compound 104]	3%	1%	2%	10%
92 (DGQKRKKSLRKKLD) [compound 92]	2%	18%	2%	17%
82 (PRLIRRGSKKRPAR) [compound 82]	38%	10%	9%	40%
106 (EILSRRPSYRKILND) [compound 106]	15%	30%	12%	9%
94 (KLAVGRHSFSRRSGV) [compound 94]	10%	5%	9%	12%
78 (KFARKSTRRSIRLPE) [compound 78]	100%	5%	2%	52%
76 (HVRRRRGTFKRSKLRARD) [compound 76]	41%	69%	100%	100%
99 (AGWRKKTSFRKPKED) [compound 99]	10%	1%	6%	17%
110 (EGGDRRASGRRK) [compound 110]	3%	1%	1%	5%
109 (KEVVRTDSLKGRRGR) [compound 109]	2%	1%	2%	7%
93 (AARKKRISVKKKQEQ) [compound 93]	1%	1%	7%	35%
112 (KRPGKKGSNKRPGKR) [compound 112]	1%	0%	3%	8%
85 (RFARKGSLRQKNV) [compound 85]	56%	81%	10%	34%
102 (AGSFKRNSIKKIV) [compound 102]	2%	5%	6%	14%
86 (RQRKRKLSFRRRTDKD) [compound 86]	28%	87%	39%	42%
95 (KKKFRTPSFLKKSKK) [compound 95]	5%	2%	9%	25%
79 (NRKKKRTSFKRKA) [compound 79]	18%	3%	7%	66%
